Test results from PMC12810213, “Crystal structure of a short-chain dehydrogenase from Brucella ovis with apo and coenzyme NAD^+-bound protomer chains” (Acta Crystallographica Section F: Structural Biology …, 2025).

How the values were obtained:
SEC = biological target: the molecule itself; experiment: SEC
crystal structure = biological target: the molecule itself; experiment: crystal structure

B1: short-chain dehydrogenase/reductase-family oxidoreductase from Brucella ovis ATCC 25840 (enzyme)
chain: MELLKEKLVLVTGAGRGLGAAISSGAAEQGARVILVDIDGTAAKAQADALTAKGFVAEGHALDVTDRDAVAALADDILSRFGGLDVLVNNAGVAGRAAFDQPEAVEVWDRVIGVNLEGAFNVSHALVPALKAAKGNVVHLCSVAGFVSGGSTAGYVVSKGAIRSLTQVMARDLAPHGIRVNAVAPGIMMSEMAVAQLNRPGGTDWFMNRVMMKRIGETSEVVDPVVFLASPMASYITGTILPVDGGFLAA
notes: also called BoSDR; B. ovis SDR; not shown: His6, N-terminal, kept
With B1 the “stoichiometry N” value (SEC) was about 2 and the “stoichiometry N” value (crystal structure) was 4.
